The target in this test is human FasL, cell surface (membrane-bound) (human) (UniProt P48023). Put plainly: cell-based or functional assay.
Chain of human FasL, cell surface (membrane-bound) (human) (P48023 whole entry): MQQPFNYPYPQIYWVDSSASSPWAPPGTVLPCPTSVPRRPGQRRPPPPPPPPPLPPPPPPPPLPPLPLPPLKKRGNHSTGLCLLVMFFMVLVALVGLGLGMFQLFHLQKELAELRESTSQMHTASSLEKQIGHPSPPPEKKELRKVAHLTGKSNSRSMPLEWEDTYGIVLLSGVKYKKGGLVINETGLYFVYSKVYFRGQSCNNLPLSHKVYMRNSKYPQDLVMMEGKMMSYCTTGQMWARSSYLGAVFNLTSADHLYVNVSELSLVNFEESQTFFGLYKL

For “soluble CD95-Fc (sCD95-Fc) fusion protein (from UniProt P25445 26-172) (Fc fusion)”, the inhibition of FasL-mediated apoptosis of Jurkat cells (annexin-V externalization, flow cytometry), IC50 came out at 102 nM.

Source of the values: patent US20260167734A1.
